Key:
[1] = test system: Human 293 cells; test: Apo-2L apoptosis induction in Apo-2DcR-transfected 293 cells (morphology of GFP-positive cells); format: cell-based; details: 293 cells transfected with pRK5-hApo-2DcR; Apo-2L 0.5 μg/ml; examined over 6 hours; FIG. 5
Description: Human 293 cells, which express both DR4 and Apo-2 mRNA (data not shown), were plated in 100 mm plates (1×10^6 cells/plate) and transfected with 3 μg per plate pRK encoding green fluorescent protein (GFP; purchased from Clontech) together with 20 μg/plate pRK5 or pRK5-hApo-2DcR (see Example 2) using calcium phosphate precipitation. After 18 hours, the cells were treated with PBS or with Apo-2L (Pitti et al., supra, 0.5 μg/ml) and examined over 6 hours under a fluorescence microscope equipped with Hoffman optics (which enables clear viewing of non-fixed cells on plastic). GFP-positive cells were identified by green fluorescence and scored for apoptosis by morphologic criteria such as membrane blebbing and cytoplasmic condensation.

[2] = test system: Apo-2L; test: Binding of radioiodinated Apo-2L to Apo-2DcR-transfected 293 cells; details: 125I-Apo-2L; 293 cells transfected with full-length Apo-2DcR vs pRK5; FIG. 4
Description: To test whether Apo-2DcR binds to Apo-2L, and to assess whether Apo-2DcR is GPI-linked, binding of radioiodinated Apo-2L to Apo-2DcR-transfected 293 cells was analyzed. The effect of pre-treatment of the cells with phosphatidylinositol-specific phospholipase C (PI-PLC) on the binding was also analyzed.
Human 293 cells (ATCC CRL 1573) were plated in 100 mm plates (1×10^6 cells/plate) and transfected with 20 μg/plate pRK5 or pRK5 encoding the full-length Apo-2DcR (described in Example 1, ATCC deposit 209087) using calcium phosphate precipitation. After 24 hours, the cells were harvested in PBS/10 mM EDTA, washed in phosphate buffered saline (PBS), resuspended in 2 ml PBS per original plate and divided into two 1 ml aliquots per transfection. PI-PLC [Treanor et al., Nature, 382:80-83 (1996)] (1 μg/ml) was added to one of the two aliquots derived from each transfection, and the cells were incubated 1 hour at 37° C. The cells were washed and respuspended in 1 ml PBS containing 1% BSA (Sigma), and 0.04 ml aliquots were placed into tubes in triplicate. […] After a 1 hour incubation at room temperature, the cells were washed in ice cold PBS, pelleted, and counted for radioactivity.

[3] = test system: NF-κB; test: Activation of NF-κB by Apo-2L in Apo-2DcR-transfected 293 cells (electrophoretic mobility shift assay); format: cell-based, human; details: 293 cells transfected with pRK5-hApo-2DcR, 18 hours; Apo-2L 0.5 μg/ml; FIG. 6
Description: In a similar experiment, the 293 cells were transfected by pRK5 or pRK5-hApo-2DcR (20 μg/plate) and analyzed 18 hours later for activation of NF-κB by Apo-2L (0.5 μg/ml), as in Example 10 below.
HeLa cells were transfected with pRK5 expression plasmids encoding full-length native sequence Apo-2, DR4 or Apo-3 and harvested 24 hours after transfection. Nuclear extracts were prepared and 1 μg of nuclear protein was reacted with a ^32P-labelled NF-κB-specific synthetic oligonucleotide probe […] (SEQ ID NO: 12) [see, also, MacKay et al., J. Immunol., 153:5274-5284 (1994)], alone or together with a 50-fold excess of unlabelled probe, or with an irrelevant ^32P-labelled synthetic oligonucleotide […] (SEQ ID NO: 13). In some samples, antibody to p65/RelA subunits of NF-κB (1 μg/ml; Santa Cruz Biotechnology) was added. DNA binding was analyzed by an electrophoretic mobility shift assay as described by Hsu et al., supra; Marsters et al., supra, and MacKay et al., supra.

[4] = test system: NF-κB; test: NF-κB activation in HeLa cells transfected with receptor plasmids (electrophoretic mobility shift assay); format: cell-based, human; details: harvested 24 hours after transfection, FIG. 12A
Description: HeLa cells were transfected with pRK5 expression plasmids encoding full-length native sequence Apo-2, DR4 or Apo-3 and harvested 24 hours after transfection. […] Immunol., 153:5274-5284 (1994)], alone or together with a 50-fold excess of unlabelled probe, or with an irrelevant ^32P-labelled synthetic oligonucleotide […] NO: 13). In some samples, antibody to p65/RelA subunits of NF-κB (1 μg/ml; Santa Cruz Biotechnology) was added. DNA binding was analyzed by an electrophoretic mobility shift assay as described by Hsu et al., supra; Marsters et al., supra, and MacKay et al., supra.

Apo-2L, sequence (P50591 114-281 limits assumed): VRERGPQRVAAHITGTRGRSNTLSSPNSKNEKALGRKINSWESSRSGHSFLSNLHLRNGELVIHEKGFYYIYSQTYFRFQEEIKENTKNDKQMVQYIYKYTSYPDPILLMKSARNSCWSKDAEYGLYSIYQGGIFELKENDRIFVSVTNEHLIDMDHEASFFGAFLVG
Apo-2L, sequence (O14798 26-236 partner limits assumed): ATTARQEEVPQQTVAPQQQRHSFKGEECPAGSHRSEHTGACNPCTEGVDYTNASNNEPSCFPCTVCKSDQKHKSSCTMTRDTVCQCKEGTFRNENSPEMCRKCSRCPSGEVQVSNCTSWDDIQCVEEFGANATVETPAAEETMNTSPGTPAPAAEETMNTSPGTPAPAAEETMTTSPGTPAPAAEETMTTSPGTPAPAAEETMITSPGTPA

Row | Molecule | responsiveness to Apo-2L as measured by apoptosis induction [1] | amount of specific Apo-2L binding [2] | Apo-2L function as measured by NF-κB activation [3] | NF-κB activation upon transfection [4]
1 | Apo-2DcR: full-length native sequence human Apo-2DcR polypeptide, 259 amino acids, GPI-anchored TNFR family member; expressed by transfection (protein) ATTARQEEVPQQTVAPQQQRHSFKGEECPAGSHRSEHTGACNPCTEGVDYTNASNNEPSCFPCTVCKSDQKHKSSCTMTRDTVCQCKEGTFRNENSPEMCRKCSRCPSGEVQVSNCTSWDDIQCVEEFGANATVETPAAEETMNTSPGTPAPAAEETMNTSPGTPAPAAEETMTTSPGTPAPAAEETMTTSPGTPAPAAEETMTTSPGTPA | markedly reduced | marked increase | inhibits Apo-2L function | –
2 | Apo-3/DR3: full length native sequence human TNFR family polypeptide with cytoplasmic death domain; expressed by transfection (protein, UniProt Q93038 1-417, looked up, full-length, expressed by transfection) MEQRPRGCAAVAAALLLVLLGARAQGGTRSPRCDCAGDFHKKIGLFCCRGCPAGHYLKAPCTEPCGNSTCLVCPQDTFLAWENHHNSECARCQACDEQASQVALENCSAVADTRCGCKPGWFVECQVSQCVSSSPFYCQPCLDCGALHRHTRLLCSRRDTDCGTCLPGFYEHGDGCVSCPTSTLGSCPERCAAVCGWRQMFWVQVLLAGLVVPLLLGATLTYTYRHCWPHKPLVTADEAGMEALTPPPATHLSPLDSAHTLLAPPDSSEKICTVQLVGNSWTPGYPETQEALCPQVTWSWDQLPSRALGPAAAPTLSPESPAGSPAMMLQPGPQLYDVMDAVPARRWKEFVRTLGLREAEIEAVEVEIGRFRDQQYEMLKRWRQQQPAGLGAVYAALERMGLDGCVEDLRSRLQRGP | – | – | – | activation observed

Reference: patent US20020161202A1, “Apo-2DcR” (Genentech, Inc., priority 1997, published 2002)
